Where “and” joins values, the source holds several entries; their conditions need not be identical. Equal entries are not always repeated.

The test concerns the target RAVE–V1 complex (yeast | yeast (endogenous), UniProt P47104 1-1357; Q03956 1-351; P52286 1-194; P16140 1-517; P32610 1-256; P22203 …, VMA1 intein (284-737) spliced out; Rav2 C-terminal FLAG and Skp1 C-terminal 6xGly-6xHis tags omitted; subunit C (Vma5) only substoichiometric, so omitted; V1 copy numbers (A3B3DE3FG3H) and RAVE 1:1:1). In words: BLI; Octet RED384, 22 °C, PBS or TBSE with 0.5 mg/ml BSA; MBP-C (5 μg/ml) captured by anti-MBP antibody on anti-mouse IgG sensors; RAVE–V1 or RAVE in solution at varied concentrations, 2400 s association and 2400 s dissociation; global single-site fit. The conditions noted are these: both partners purified. (In general: Biolayer interferometry detects binding as a change in optical thickness at a sensor tip.)

B1: maltose-binding protein (MBP)–tagged subunit C (natural protein, yeast, UniProt P31412 1-392, looked up)
chain: MATALYTANDFILISLPQNAQPVTAPGSKTDSWFNETLIGGRAFVSDFKIPEFKIGSLDTLIVESEELSKVDNQIGASIGKIIEILQGLNETSTNAYRTLPINNMPVPEYLENFQWQTRKFKLDKSIKDLITLISNESSQLDADVRATYANYNSAKTNLAAAERKKTGDLSVRSLHDIVKPEDFVLNSEHLTTVLVAVPKSLKSDFEKSYETLSKNVVPASASVIAEDAEYVLFNVHLFKKNVQEFTTAAREKKFIPREFNYSEELIDQLKKEHDSAASLEQSLRVQLVRLAKTAYVDVFINWFHIKALRVYVESVLRYGLPPHFNIKIIAVPPKNLSKCKSELIDAFGFLGGNAFMKDKKGKINKQDTSLHQYASLVDTEYEPFVMYIINL
notes: V-ATPase V1 subunit C (Vma5), yeast; MBP was not cleaved; also called MBP-C; expressed subunit C; source: E. coli Rosetta2, purified (amylose column)
What is called Kd is a measure of binding affinity in units of concentration. Read a high Kd as weaker binding. As to B1, the Kd was 13.6 nM and 18.1 nM.

These data come from publication PMC8138766, “Defining steps in RAVE-catalyzed V-ATPase assembly using purified RAVE and V-ATPase subcomplexes” (The Journal of Biological Chemistry, 2021).
